Tests used:
[1] = biological target: baculo-derived HPV16 VLPs in PBS (native form) (Human papillomavirus type 16) (UniProt P03101); test: ELISA, plates coated with baculo-derived HPV16 VLPs in PBS; antibody stock 35 µg/ml
[2] = biological target: unfolded HPV16 VLP (baculo-derived HPV16 VLPs in 0.2M carbonate buffer pH9.5) (Human papillomavirus type 16) (UniProt P03101); test: ELISA, plates coated with VLP in carbonate buffer pH 9.5; antibody stock 35 µg/ml

**Q.** For HPV16-L1 mAb CAMVIR-1 (antibody), which IgG titer (reciprocal of the highest sample dilution that yielded an OD492 four times that of preimmune sample) (reciprocal dilution) [1] is on record?
**A.** 16000

**Q.** And the IgG titer (reciprocal of the highest sample dilution that yielded an OD492 four times that of preimmune sample) (reciprocal dilution) [2]?
**A.** 80000
